The text below walks through data of patent US20260258115A1 (MAPP BIOPHARMACEUTICAL, published 2026).

A word on the Kd: it is the free concentration of one partner at which half of the binding sites on the other are occupied at equilibrium, for simple one-to-one binding. A low value points to higher affinity.

Where a chain is given by its changes, count along the chain named.

First the molecules themselves.
B1: ADI-24814 (antibody, V domains shown)
VH: EVQLLESGGGVVQPGRSLRLSCAASGFTFNSYTMHWVRQAPGKGLEWVAVISYDGSNKYYADSVKGRFTISRDNSKNTLYLQMNSLRAEDTAVYYCARGRPYDFWSGYYTDYYYYMDVWGKGTTVTVSS
VL: EIVLTQSPGTLSLSPGERATLSCRASQSVYSNYLAWYQQKPGQAPRLLIYGASSRATGIPDRFSGSGSGTDFTLTISRLEPEDFAVYYCQQCGSSWTFGQGTKVEIK
notes: full-length IgG
B2: ADI-19458 (antibody, V domains shown)
VH: EVQLVESGGGRVKPGGSLRLSCAASGFTFRSYSMNWVRQAPGKGLEWVSSISSSSSYINYADSVKGRFTISRDNAKNSLYLQMNSLRAEDTAVYYCARDGSGMTIFGVVIDYWGQGTLVTVSS
VL: QSVLTQPPSVSGAPGQRVTISCTGSSSNIGAGYDVHWYQQLPGTAPKLLIYGNSNRPSGVPDRFSGSKSGTSASLAITGLQAEDEADYYCQSYDRSLTVVFGGGTKLTVL
notes: full-length IgG
B3: ADI-24828 (antibody, V domains shown)
VH: EVQLVESGGGLVKPGGSLRLACAASGFSFRSYRMNWVRQAPGKGLEWVSSISSSSSYIDYADSVKGRFTISRDNAKNTVYLQVNSLRAEDTAVYYCARDGRTIFGVVIDYWGQGTLVTVSS
VL: B2 VL with S54N, A76V, R95S, T98S
notes: full-length IgG; also called Ab 390
B4: ADI-25532 (antibody, V domains shown)
VH: QVQLVQSGGGLVKPGGSLRLSCAASGFTFSSYSMNWVRQAPGKGLEWVSSISSSSSYIYYADSVKGRFTISRDNAKNSLYLQMNSLRAEDTAVYYCARGSSSSWYYFDYWGQGTLVTVSS
VL: B2 VL with L4V, R95S, T98S, V99Y, G103T, L107V
notes: full-length IgG
B5: ADI-24819 (antibody, V domains shown)
VH: B4 VH with Q1E, V5L, Q6E, G99E, S101G, S103G
VL: B2 VL with R95G, T98S, V99G, L107V
notes: full-length IgG
B6: ADI-25462 (antibody, V domains shown)
VH: B4 VH with Q1E, Q6E, D73H, Y105F, Y106C
VL: B2 VL with Q1S, S2Y, R95S, T98S, V99Y, G103T
notes: full-length IgG
B7: ADI-19509 (antibody, V domains shown)
VH: EVQLVESGGGLVKPGGSLRLSCAASGFTFSSYSMNWVRQAPGKGLEWVSSISSSSSYIYYADSVKGRFTISRDNAKNSLYLQMNSLRAEDTAVYYCASSRRSLTGDRGGWFDPWGQGTLVTVSS
VL: QSVLTQPPSVSGAPGQRVTISCTGSSSNIGAGYDVHWYQQLPGTAPKLLIYGNSNRPSGVPDRFSGSKSGTSASLAITGLQAEDEADYYCQSYDSSLSGWVFGGGTKLTVL
notes: full-length IgG
B8: ADI-24792 (antibody, V domains shown)
VH: EVQLVESGGGLVKPGGSLRLSCAASGFIFSDYYMSWIRQAPGKGLEWVSNISGGSSFTNYADSVKGRFTISRDNAKNSLYLQMNSLRAEDTAVYYCARDLGYCSSNSCLDAFDIWGQGTTVTVSS
VL: B7 VL with S54T, K68R, W100S, V101L, L108V
notes: full-length IgG
B9: ADI-19510 (antibody, V domains shown)
VH: EVQLVESGGGLVKPGGSLRLSCAASGFSLSSYYMNWVRQAPGKGLEWVSSISSSSTYINYADSVKGRFTISRDNAKNSLYLQMNSLRAEDTAVYYCARGGSITIFGVVFDSWGQGTLVTVSS
VL: B7 VL with Q1S, S2Y, V3E, S25T, G52V, W100G, G104T, L108V
notes: full-length IgG; also called Ab 210
B10: ADI-24817 (antibody, V domains shown)
VH: EVQLVESGGGLVKPGGSLRLSCAASGFTFSSYSMNWVRQAPGKGLEWVSSISSSSSYIYYADSVKGRFTISRDNAKNSLYLQMNSLRAEDTAVYYCARDSMALLYSNYWFDPWGQGTLVTVSS
VL: B7 VL with L4V, W100S
notes: full-length IgG
B11: ADI-24832 (antibody, V domains shown)
VH: EVQLVESGGGLVKPGGSLRLSCAASGFTFSSYSMNWVRQAPGKGLEWVSSISASSSYIFYSDLVKGRFTISRDNAKNSLYLQMNSLRAEDTAVYYCARAGYYYGSGSYYVDYWGQGTLVTVSS
VL: B7 VL with T19A, D94G
notes: full-length IgG
B12: ADI-24835 (antibody, V domains shown)
VH: EVQLVESGGGLVKPGGSLRLSCAASGFPFSTSSMNWVRQAPGKGLEWVSSISSSSSYIDYADSVKGRFTISRDNAKNSLYLQMNSLRAGDTAVYYCARVPRSDWYYFDYWGQGTLVTVSS
VL: B7 VL with L4V, L48F, G52D, S54K, N55Y, W100Y, G104T
notes: full-length IgG
B13: ADI-25495 (antibody, V domains shown)
VH: QVQLVQSGGGLVKPGGSLRLSCAASGFTFSSYSMNWVRQAPGKGLEWVSSISSSSSYIYYADSVKGRFTISRDNAKNSLYLQMNSLRAEDTAVYYCARGYCTNGVCYLDAFDIWGQGTTVTVSS
VL: QSVLIQPASVSGSPGQSITISCTGTSSDVGGYNYVSWYQQHPGKAPKLMIYDVSNRPSGVSNRFSGSKSGNTASLTISGLQAEDEADYYCSSYTSSSTPVVFGGGTKVTVL
notes: full-length IgG
B14: ADI-25479 (antibody, V domains shown)
VH: EVQLVESGGGLVKPGGSLRLSCAASGFTFSSYSMNWVRQAPGKGLEWVSSISSSSSYIYYADSVKGRFTISRDNAKNSLYLQMNSLRAEDTAVYYCARGGYSYGAYYYYYMDVWGKGTTVTVSS
VL: QSVLTQPPSVSGAPGQRVTISCTGSSSNIGAGYDVHWYQQLPGTAPKLLIYGNSNRPSGVPDRFSGSKSGTSASLAITGLQAEDEADYYCQSYDSSLSGYWVFGGGTKLTVL
notes: full-length IgG
B15: ADI-24805 (antibody, V domains shown)
VH: B14 VH with E1Q, E6Q, G99E, Y103S, G104S, A105S, Y106G
VL: B7 VL with W100S, G104T, L108V
notes: full-length IgG; also called Ab 370
B16: ADI-24831 (antibody, V domains shown)
VH: QVQLVESGGGLVKPGGSLRLSCAASGFTFSSYSMNWVRQAPGKGLEWVSSISSSSSYIYYADSVKGRFTISRDNAKNSLYLQMNSLRAEDTAVYYCARVPSDFWSGYYNDYWGQGTLVTVSS
VL: B14 VL with Y100S
notes: full-length IgG; also called Ab 393
B17: ADI-25480 (antibody, V domains shown)
VH: B14 VH
VL: B14 VL with L109V
notes: full-length IgG; also called Ab 430
B18: ADI-25484 (antibody, V domains shown)
VH: EVQLVESGGGLVKPGGSLRLSCAASGFTFSSYSMNWVRQAPGKGLEWVSSISSSSSYIYYADSVKGRFTISRDNAKNSLYLQMNSLRAEDTAVYYCARSIAVAGTGYGMDVWGQGTTVTVSS
VL: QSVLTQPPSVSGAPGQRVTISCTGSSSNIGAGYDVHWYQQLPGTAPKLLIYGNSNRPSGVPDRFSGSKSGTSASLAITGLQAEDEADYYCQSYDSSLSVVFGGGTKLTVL
notes: full-length IgG

For one assay, the target named is T1, RSV prefusion F (preF), subtype B (respiratory syncytial virus subtype B).
T1 construct: also called Prefusion subtype B
Description: BLI, IgG. Background: BLI is a label-free optical method that tracks binding on a fibre tip over time.
B1 registered a Kd of 2.39 nM.
B2 gave an equilibrium dissociation constant (Kd) of 0.243 nM.
On the same count and under the same terms, for B3 the value was 0.391 nM; for B4, 1.56 nM; for B5, 9.44 nM.
Turning to B6, the affinity, expressed as Kd, was 1.71 nM. This Kd lies about 5.5-fold lower than the previous one.
Molecule B7 showed a Kd of 1.58 nM.
On the same count and under the same terms, with B8 the figure was 1.83 nM.
Regarding B9, the equilibrium dissociation constant (Kd) was determined as 0.239 nM.
Still for that read-out and setting: for B10 the value was 9.23 nM; for B11, 1.95 nM.
Still for that read-out and setting: for B12 the value was 5.55 nM.
In turn, B13 gave a Kd of 6.41 nM.
On to B14, for which binding was characterised by a dissociation constant (Kd) of 4.29 nM.
B15 had a dissociation constant Kd of 4.88 nM.
Molecule B16 gave a Kd of 6.23 nM.
The molecule B17 had a dissociation constant (Kd) of 4.27 nM.
For the molecule B18, binding was characterised by a dissociation constant (Kd) of 18.4 nM. This Kd lies about 4.3-fold higher than the previous one.

A further assay concerns the target T2, RSV postfusion F (postF), subtype A (respiratory syncytial virus subtype A, UniProt P03420 26-513).
T2 construct: also called Postfusion subtype A; F deltaFP
Put plainly: BLI.
Regarding B1, the binding result is recorded as “no binding”.
Same read-out and setting: with B2 the entry was “no binding”; with B3, “no binding”; with B4, “no binding”.
The same measure, in the same setting: with B5 the entry was “no binding”; with B6, “no binding”; with B7, “no binding”.
The same measure, in the same setting: with B8 the entry was “no binding”; with B9, “no binding”; with B10, “no binding”.
B11: the binding result is on record as “no binding”.
Consider B12, for which the binding result is on record as “no binding”.
The same measure, in the same setting: for B13 the value was “no binding”.
On the same count and under the same terms, with B14 the entry was “no binding”; with B15, “no binding”.
Still for that read-out and setting: with B16 the entry was “no binding”.
For B17, the binding result is recorded as “no binding”.
On the same count and under the same terms, for B18 the value was “no binding”.

The next assay deals with RSV F on RSV subtype A virus (mKate-RSV A2) (respiratory syncytial virus A2, UniProt P03420 26-574). Description: cell-based or functional assay.
Take B1: the “Neut IC50 subtype A” value came to 0.73 µg/mL.
Still for that read-out and setting: with B2 the figure was 0.04 µg/mL; with B3, 0.02 µg/mL; with B4, 0.04 µg/mL.
As to B5, the “Neut IC50 subtype A” value was found to be 4.33 µg/mL.
On the same count and under the same terms, with B6 the figure was 0.15 µg/mL; with B7, 3.42 µg/mL; with B8, 0.27 µg/mL.
On to B9, for which the “Neut IC50 subtype A” value turned out to be 0.16 µg/mL.
Take B10: the “Neut IC50 subtype A” value came out at 2.2 µg/mL.
Consider B11, for which the “Neut IC50 subtype A” value was found to be 0.49 µg/mL.
Same read-out and setting: for B12 the value was 0.63 µg/mL; for B13, 0.24 µg/mL; for B14, 0.24 µg/mL.
B15: the “Neut IC50 subtype A” value is 0.21 µg/mL.
On to B16, for which the “Neut IC50 subtype A” value turned out to be 0.21 µg/mL.
Still for that read-out and setting: with B17 the figure was 0.17 µg/mL; with B18, 15.3 µg/mL.

A further assay deals with RSV F on RSV subtype B virus (mKate-RSV B 18537) (respiratory syncytial virus B 18537, UniProt P13843 26-574). Description: cell-based or functional assay.
With B1, the “Neut IC50 subtype B” value came out at 0.32 µg/mL.
For B2, the “Neut IC50 subtype B” value was 0.07 µg/mL.
Still for that read-out and setting: for B3 the value was 0.04 µg/mL; for B4, 0.05 µg/mL; for B5, 6.28 µg/mL.
On the same count and under the same terms, for B6 the value was 0.11 µg/mL; for B7, 1.56 µg/mL; for B8, 0.19 µg/mL.
On to B9, for which the “Neut IC50 subtype B” value was 0.83 µg/mL.
Same read-out and setting: for B10 the value was 4.4 µg/mL; for B11, 0.24 µg/mL.
On the same count and under the same terms, for B12 the value was 1.06 µg/mL.
Consider B13, for which the “Neut IC50 subtype B” value came to 5.6 µg/mL.
As to B14, the “Neut IC50 subtype B” value turned out to be 0.29 µg/mL.
As for B15, the “Neut IC50 subtype B” value amounted to 0.71 µg/mL.
As for B16, the “Neut IC50 subtype B” value was determined as 3.29 µg/mL.
For B17, the “Neut IC50 subtype B” value is 0.17 µg/mL.
As to B18, the “Neut IC50 subtype B” value is 8.58 µg/mL.
